Experimental data: article PMC3832671, “Two Homologous EF-G Proteins from Pseudomonas aeruginosa Exhibit Distinct Functions” (PLoS ONE, 2013)

Legend:
[1] = test system: T1, Nc1nc2c(ncn2[C@@H]2O[C@H](COP(=O)(O)OP(=O)(O)OP(=O)(O)O)[C@@H](O)[C@H]2O)c(=O)[nH]1; assay: ribosome-dependent GTPase, colorimetric Pi release, Lineweaver-Burk; assay type: biochemical, Pseudomonas aeruginosa; conditions: P. aeruginosa ribosomes 0.4 μM, EF-G1B 0.3 μM, 10 mM MgCl2, 70 mM NH4Cl, pH 7.5, 37 °C, kcat is kcat^obs, text b30 prints 71 μM
T1 construct: full length (702 residues) with N-terminal 6xHis tag from pET-28b(+), NheI/HindIII; expressed in E. coli Rosetta 2(DE3); about 77 kDa
Description: ribosome-dependent GTPase, colorimetric Pi release, Lineweaver-Burk on EF-G1B

[2] = test system: T2, Nc1nc2c(ncn2[C@@H]2O[C@H](COP(=O)(O)OP(=O)(O)OP(=O)(O)O)[C@@H](O)[C@H]2O)c(=O)[nH]1; assay: as above; assay type: biochemical, Pseudomonas aeruginosa; conditions: P. aeruginosa ribosomes 0.4 μM, EF-G1A 1.0 μM, 10 mM MgCl2, 70 mM NH4Cl, pH 7.5, kcat is kcat^obs
T2 construct: full length (706 residues) with N-terminal 6xHis tag from pET-28b(+), NheI/HindIII; expressed in E. coli Rosetta 2(DE3); about 77 kDa
Description: ribosome-dependent GTPase, colorimetric Pi release, Lineweaver-Burk on EF-G1A

Substance: EF-G1B (Pseudomonas aeruginosa PAO1)
- Km [1]: 70 µM
- kcat [1]: 0.2 s⁻¹
- kcat/Km [1]: 3000 M⁻¹ s⁻¹

Substance: EF-G1A (Pseudomonas aeruginosa PAO1)
- Km [2]: 85 µM
- kcat [2]: 0.04 s⁻¹
- kcat/Km [2]: 500 M⁻¹ s⁻¹
